Reference: PMC5739008 (The ISME journal, 2017)

Biological target: the molecule itself
Test: SEC

B1: methanethiol oxidase (MTO) of Hyphomicrobium sp. VS (enzyme)
chain: DETCNSPFTTALITGQEQYLHVWTLGMPGVGDESDKLVTISVDPKSDKYGKVINTLSVGGRGEAHHTGFTDDRRYLWAGRLDDNKIFIFDLIDPANPKLIKTITDFADRTGYVGPHTFYALPGRMLIQALSNTKTHDGQTGLAVYSNAGELVSLHPMPVTDGGDGYGYDIGINPAKNVLLTSSFTGWNNYMMDLGKMVKDPEAMKRFGNTMAIWDLKSMKAEKILNVPGAPLEIRWSLKPEHNWAYTATALTSKLWLIKQDDKGEWIAKETGTIGDPSKIPLPVDISITADAKGLWVNTFLDGTTRFYDISEPEHPKEVFSKKMGNQVNMVSQSYDGKRVYFTTSLIANWDKKGAENDQWLKAYDWDGKELVEKFTVDFNELKLGRAHHMKFSSKTNAAELGTNQSFPTRQ
stoichiometry N: 4
